Biological target: T1, LPXTG peptide DABCYL-QALPETGEE-EDANS
T1 chain: QALPETGEE

B1: SrtADN (SrtA in which the NH2-terminal membrane anchor segment is replaced with a six histidine tag) (protein)
chain: KPHIDNYLHDKDKDEKIEQYDKNVKEQASKDKKQQAKPQIPKDKSKVAGYIEIPDADIKEPVYPGPATPEQLNRGVSFAEENESLDDQNISIAGHTFIDRPNYQFTNLKAAKKGSMVYFKVGNETRKYKMTSIRDVKPTDVGVLDEQKGKDKQLTLITCDDYNEKTGVWEKRKIFVATEVK
  LPXTG peptide cleavage activity of MTSET-inactivated SrtADN after 10 mM DTT: restored 80% of LPXTG peptide cleavage activity
  cleavage of LPXTG peptide in the presence of 0.2 M NH2OH (fluorescence): Addition of 0.2 M NH2OH to this reaction resulted in an increase in fluorescence
  cleavage of LPXTG peptide measured as an increase in fluorescence: SrtADN catalyzed cleavage of the substrate
  hydroxylaminolysis of LPXTG peptide after pre-incubation with MTSET: pre-incubation with MTSET abolished all enzymatic activity
